Paper PMC10684580, “Unexpected dynamics in femtomolar complexes of binding proteins with peptides” (Nature Communications, 2023)
One block for each molecule: values may come before it.

Columns and labels:
[1] = test system: N^AM4C; assay: NMR line-shape simulation, N^AM4C peptide titration (three-state); type: binding; settings: three-state model, 310 K
Method: (§1) The peptides were dissolved in NMR buffer to generate 10 mM stocks that were titrated in 0.1 molar equivalents steps to 250 μM dArmRPs in NMR buffer up to 1.5 equivalents, and then in 0.5 equivalents steps up to 5.5 equivalents. For each step, a [^15N,^1H]-HSQC experiment was recorded at 310 K with the other parameters described above.
The change of line-shape and peak positions in the [^15N,^1H]-HSQC spectra upon adding (KR)n was simulated using in-house written Mathematica notebooks. In principle, for the simple two-state process of ligand binding, described only by single kon and koff rates and the concentrations used, the modified Bloch McConnell equations[49] can be used. […]
For simplicity, the same transverse relaxation rate R2 was assumed for all protein states and the chemical shift of the partially unbound state PL^* to be the same as for the free protein, that is ΩP . ΩPL is the chemical shift of the bound state and L the equilibrium concentration of the free peptide. […] Thereby the k1,on and k1,off rate constants were chosen such that their ratio was in the range of the measured or predicted Kd values[21] and that all signals during the titration could be fitted well (see text, Supplementary Fig. 12). […]

[2] = test system: N^AM4C; assay: [15N,1H]-HSQC peptide titration, N^AM4C/NM4C; type: binding; settings: 310 K, 250 μM dArmRP
Method: All experiments were recorded on Bruker Neo 600 or 700 MHz spectrometers, employing cryogenically cooled or Prodigy ^1H, ^13C, ^15N triple-resonance probes. Pulse field gradients with coherence selection[46] were applied to all heteronuclear ^15N,^1H experiments using standard Bruker pulse sequences, together with the Rance-Palmer method for sensitivity enhancement. All spectra were processed in TOPSPIN using cosine-bell-shifted window functions prior to Fourier transformation, and analyzed in CARA[48]. Chemical shift assignments were obtained from triple-resonance and HCCH-type 3D NMR experiments using the standard Bruker pulse-program library. […]
as §1
Assignments of the spectra required for CSPs were performed through segmental labeling as detailed in the Results section. […] CSPs were calculated using the following formula[50]9 δHf−δHb/1^2+δNf−δNb/4^2 where δH and δN represent the chemical shifts in the proton and nitrogen dimensions, respectively, while f and b represent the free and bound states, respectively. […]

[3] = target: mCherry-tagged N^YM7C; assay: FRET or BRET; FRET-based stopped-flow assay; 20 nM GFP-tagged peptide mixed 1:1 (volume) with 50-250 nM mCherry-tagged NM7C for kon; koff from competition: preincubated 50 nM tagged peptide and 40 nM tagged protein mixed 1:1 with 2 uM unlabeled competitor
[4] = target: N^YM7C designed Armadillo repeat protein (dArmRP) with the N^Y cap, seven identical internal modules M and the C cap; assay: NMR titration; [15N,1H]-HSQC chemical shift perturbations; 10 mM peptide stock titrated in 0.1 equivalent steps to 250 uM dArmRP in NMR buffer up to 1.5 equivalents, then 0.5 equivalent steps up to 5.5 equivalents; 310 K
[5] = target: N^AM4C designed Armadillo repeat protein (dArmRP) with the redesigned N^A (artificial) cap, four identical internal modules M and the C cap; assay: as above
[6] = target: N^AM7C designed Armadillo repeat protein (dArmRP) with the N^A cap, seven identical internal modules M and the C cap; assay: NMR titration; line-shape simulation of traces from [15N,1H]-HSQC titrations; three-state model P + L = PL = PL*; parameters adjusted by visual inspection, k1,on and k1,off chosen so that their ratio fits the measured or predicted Kd
[7] = target: N^AM4C designed Armadillo repeat protein (dArmRP) with the redesigned N^A (artificial) cap, four identical internal modules M and the C cap; assay: as above

equivalents of peptide required for full saturation [4]: 1 equiv. | equivalents of peptide required for full saturation [5]: 1 equiv. | k1,off (step 1, overall unbinding; line-shape simulation parameter) [6]: 0.0003 s^–1 | k1,on (step 1, overall binding; line-shape simulation parameter) [6]: 6.2e+08 M^–1·s^–1 | k2 (step 2, exchange in the bound state, PL to PL*) [6]: 30 s^–1 | k2’ (step 2, exchange in the bound state, PL* to PL) [6]: 100 s^–1
Molecule: Ac-KRKRKRKRKRKRKR-OH [(KR)7 peptide]

equivalents of peptide required for full saturation [5]: 1.3 equiv. | k1,off (step 1, overall unbinding; line-shape simulation parameter) [7]: 300 s^–1 | k1,on (step 1, overall binding; line-shape simulation parameter) [7]: 1e+09 M⁻¹ s⁻¹ | k2 (step 2, exchange in the bound state, PL to PL*) [7]: 30 s^–1 | k2’ (step 2, exchange in the bound state, PL* to PL) [7]: 700 s^–1
Molecule: Ac-KRKRKRKR-OH [(KR)4 peptide, (Lys-Arg)4 octapeptide]

Further lines, the molecule ahead of its results:

Molecule: (Lys-Arg)4 [(KR)4]
k2 (isomerization of bound state, PL to PL*) [1]: 30 s^–1 | k2’ (PL* to PL) [1]: 700 s^–1 | peptide required for full saturation [2]: 1.3 equiv.

Molecule: KRKRKRKR [GFP-tagged (KR)4 peptide]
koff [3]: 0.23 s⁻¹
